{"source": "patent US20250074995A1", "about": "(I MAB BIOPHARMA, published 2025)", "binders": {"B1": {"name": "parental anti-4-1BB sdAb antibody conjugated with IgG1 Fc fragment (Fc fusion)", "chain": "QVQLQESGGGLVQPGGSLRLSCAASGYTYSSNCMGWFRQAPGKGLEGVAVICTGGGSPSYADSVKGRFTISRDNAKNTLYLQMNSLRAEDTAVYYCAADLLRAGTPLSSYEFNYWGQGTLVTVSS", "notes": "also called 4-1BB sdAb-Fc; not shown: IgG1 Fc fragment"}}, "molecular_target": "T1, monomeric human 4-1BB (human, UniProt Q07011 24-186)", "T1 construct": "SPR analyte or ligand", "test": "SPR with monomeric human 4-1BB", "data": [{"binder": "B1", "values": [{"measurement": "koff", "value": 0.000168, "unit": "s⁻¹"}]}]}
